What was measured:
[1] = biological target: T1, human CD71 extracellular domain (human, UniProt P02786 89-760); assay: primary ELISA; further: test concentration or dose not given here
T1 construct: also called hCD71; human CD71-ECD

[2] = biological target: T2, apical domain of cynomolgus CD71 (cynomolgus, UniProt A0A2K5X958 189-383); assay: primary ELISA; further: test concentration or dose not given here
T2 construct: domain: apical domain; also called Cyno apical domain

[3] = biological target: T1, human CD71 extracellular domain; assay: primary ELISA, signal ratio to HSA
[4] = biological target: T2, apical domain of cynomolgus CD71; assay: primary ELISA, signal ratio to HSA

T2 sequence (A0A2K5X958 entry or part of it): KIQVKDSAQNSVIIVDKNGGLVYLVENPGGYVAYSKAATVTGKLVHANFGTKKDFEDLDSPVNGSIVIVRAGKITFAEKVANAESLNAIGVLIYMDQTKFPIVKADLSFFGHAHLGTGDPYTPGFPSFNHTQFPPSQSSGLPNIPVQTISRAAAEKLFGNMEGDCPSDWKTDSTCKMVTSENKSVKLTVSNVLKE
T1 sequence (P02786 89-760): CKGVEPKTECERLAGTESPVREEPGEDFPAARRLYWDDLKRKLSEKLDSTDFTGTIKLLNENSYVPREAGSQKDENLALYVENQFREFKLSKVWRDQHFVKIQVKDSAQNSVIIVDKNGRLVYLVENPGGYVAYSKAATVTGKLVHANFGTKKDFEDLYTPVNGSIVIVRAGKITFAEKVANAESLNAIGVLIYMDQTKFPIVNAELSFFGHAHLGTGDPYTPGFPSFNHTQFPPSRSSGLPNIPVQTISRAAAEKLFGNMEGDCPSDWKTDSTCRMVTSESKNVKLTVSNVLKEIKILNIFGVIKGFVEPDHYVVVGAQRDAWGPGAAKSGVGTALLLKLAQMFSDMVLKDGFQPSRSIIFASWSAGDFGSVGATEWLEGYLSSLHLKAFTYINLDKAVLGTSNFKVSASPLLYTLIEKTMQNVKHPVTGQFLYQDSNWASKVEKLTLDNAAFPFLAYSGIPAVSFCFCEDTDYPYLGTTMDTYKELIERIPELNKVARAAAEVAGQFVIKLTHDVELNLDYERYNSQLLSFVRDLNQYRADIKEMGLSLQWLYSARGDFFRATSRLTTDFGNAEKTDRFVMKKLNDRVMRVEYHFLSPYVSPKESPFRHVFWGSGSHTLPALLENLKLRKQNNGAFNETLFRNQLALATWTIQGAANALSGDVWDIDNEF

Binder	RLU [1] [RLU]	RLU [2] [RLU]	hCD71:HSA [3]	Cyno apical domain:HSA [4]
CD71-binding FN3 domain of SEQ ID NO: 121 (designed binder) MSLPAPKNLVVSRVTEDSARLSWTAPDAAFDSFFIGYLEPQPPGEAITLYVPGSERSYDLTGLKPGTEYNVTIQGVKGGFPSAPLSAIFTT	5.42e+06	6.22e+06	109	125
CD71-binding FN3 domain of SEQ ID NO: 138 (designed binder) MSLPAPKNLVVSRVTEDSARLSWTAPDAAFDSFFIGYLEPQPPGEVIHLFVPGSERSYDLTGLKPGTEYNVTIQGVKGGFPSMPLSAIFTT	5.91e+06	6.59e+06	246	275
CD71-binding FN3 domain of SEQ ID NO: 127 (designed binder) MSLPAPKNLVVSRVTEDSARLSWTAPDAAFDSFFIGYLEPQPPGEAITLLVPGSERSYDLTGLKPGTEYNVTIQGVKGGFPSGPLQASFTT	4.73e+06	6.52e+06	188	259
CD71-binding FN3 domain of SEQ ID NO: 137 (designed binder) MSLPAPKNLVVSRVTEDSARLSWTAPDAAFDSFFIGYLEPQPPGEAITLYVPGSERSYDLTGLKPGTEYNVTIQGVKGGFPSDPLVAHFTT	7.03e+06	5.96e+06	257	218
CD71-binding FN3 domain of SEQ ID NO: 140 (designed binder) MSLPAPKNLVVSRVTEDSARLSWTAPDAAFDSFFIGYLEPQPPGEAIHLYVPGSERSYDLTGLKPGTEYNVTIQGVKGGFPSMPLSAIFTT	5.72e+06	7.01e+06	163	199
CD71-binding FN3 domain of SEQ ID NO: 135 (designed binder) MSLPAPKNLVVSRVTEDSARLSWTAPDAAFDSFFIGYLEPQSPGEAIALYVPGSERSYDLTGLKPGTEYNVTIQGVKGGFPSEPLIANFTT	5.86e+06	6.07e+06	224	232
CD71-binding FN3 domain of SEQ ID NO: 133 (designed binder) MSLPAPKNLVVSRVTEDSARLSWTAPDAAFDSFKIKYAEYDRYGEAIALFVPGSERSYDLTGLKPGTEYFVHIDGVKGGTDSQPLVASFTT	1.83e+06	5.11e+06	138	387
CD71-binding FN3 domain of SEQ ID NO: 129 (designed binder) MGGSLPAPKNLVVSRVTEDSARLSWTAPDAAFDSFEIGYFENLYLGEAIVLTVPGSERSYDLTGLKPGTEYWVQIGGVKGGNWSAPLSAIFTT	2.49e+06	4.89e+06	159	313
CD71-binding FN3 domain of SEQ ID NO: 128 (designed binder) MSSLPAPKNLVVSRVTEDSARLSWTAPDAAFDSFEIGYFENLYLGEAIVLTVPGSERSYDLTGLKPGTEYWVQIGGVKGGNWSAPLSAIFTT	4.62e+06	5.56e+06	215	259
CD71-binding FN3 domain of SEQ ID NO: 123 (designed binder) MSLPAPKNLVVSRVTEDSARLSWTAPDAAFDSFAIRYWELRATGEAIPLSVPGSERSYDLTGLKPGTEYHVAISGVKGGKSSYPLRASFTT	4.51e+06	5.2e+06	108	125
CD71-binding FN3 domain of SEQ ID NO: 136 (designed binder) MSLPAPKNLVVSRVTEDSARLSWTAPDAAFDSFEIDYVEFIFTGEAIGLIVPGSERSYDLTGLKPGTEYWVTIAGVKGGEWSTPLQAFLTT	4.08e+06	4.46e+06	273	298
CD71-binding FN3 domain of SEQ ID NO: 153 (designed binder) MSLPAPKNLVVSRVTEDSARLSWTAPDAAFDSFYIAYAEPRPDGEAIVLAVPGSERSYDLTGLKPGTEYSVLIHGVKGGLLSSPLGADFTT	4.57e+06	4.11e+06	141	127
CD71-binding FN3 domain of SEQ ID NO: 125 (designed binder) MSLPAPKNLVVSRVTEDSARLSWTAPDAAFDSFYIAYAEPRPDGEAIILLVPGSERSYDLTGLKPGTEYSVLIHGVKGGLLSSPLHAHFTT	3.64e+06	5.09e+06	109	153
CD71-binding FN3 domain of SEQ ID NO: 134 (designed binder) MSLPAPKNLVVSRVTEDSARLSWTAPDAAFDSFDINYWENESGGEAIALFVPGSERSYDLTGLKPGTEYLVTIAGVKGGWWSKPLYATFTT	4.52e+06	5.77e+06	192	245

Second part, the binder after the results:

RLU [1] [RLU]	RLU [2] [RLU]	hCD71:HSA [3]	Cyno apical domain:HSA [4]	Binder
5.73e+06	6.09e+06	13	14	CD71-binding FN3 domain of SEQ ID NO: 161 (designed binder) MSLPAPKNLVVSRVTEDSARLSWTAPDAAFDSFFIGYLEPQPPGEAIVLTVPGSERSYDLTGLKPGTEYNVTIQGVKGGFPSEPLVAHFTT
5.14e+06	6.36e+06	158	196	CD71-binding FN3 domain of SEQ ID NO: 145 (designed binder) MSLPAPKNLVVSRVTEDSARLSWTAPDAAFDSFFIGYLEPQPPGEAIALLVPGSERSYDLTGLKPGTEYNVTIQGVKGGFPSHPLSAKFTT
5.56e+06	6.67e+06	173	208	CD71-binding FN3 domain of SEQ ID NO: 147 (designed binder) MSLPAPKNLVVSRVTEDSARLSWTAPDAAFDSFFIGYLEPQPPGEAIELFVPGSERSYDLTGLKPGTEYNVTIQGVKGGFPSGPLIASFTT
1.5e+06	5.14e+06	65	225	CD71-binding FN3 domain of SEQ ID NO: 163 (designed binder) MSLPAPKNLVVSRVTEDSARLSWTAPDAAFDSFFIGYLEPQPPGEVIHLYVPGSERSYDLTGLKPGTEYVVFIGGVKGGVWSVPLSAIFTT
2.26e+06	4.08e+06	148	267	CD71-binding FN3 domain of SEQ ID NO: 185 (designed binder) MGSLPAPKNLVVSRVTEDSARLSWTAPDAAFDSFEISYWEHTFNGEAIILFVPGSERSYDLTGLKPGTEYWVQIGGVKGGNWSAPLSAIFTT
4.46e+06	5.49e+06	240	296	CD71-binding FN3 domain of SEQ ID NO: 162 (designed binder) MSLPAPKNLVVSRVTEDSARLSWTALDAAFDSFEISYWEHTFNGEAIILFVPGSERSYDLTGLKPGTEYYVTIGGVKGGAWSPPLWAEFTT
2.82e+06	5.13e+06	97	176	CD71-binding FN3 domain of SEQ ID NO: 212 (designed binder) MSLPAPKNLVVSRVTEDSARLSWTAPDAAFDSFEIGYFENLYLGEAIVLTVPGSERYYDLTGLKPGTEYWVQIGGVKGGNWSAPLSAIFTT
2.33e+06	3.98e+06	43	74	CD71-binding FN3 domain of SEQ ID NO: 217 (designed binder) MSLPAPKNLVVSRVTEDSARLSWTAPDAAFDSFEIAYFEQTYTGEAIVLTVPGSERSYDLTGLKPGTEYWVAIGGVKGGLWSLPLSAIFTT
3.34e+06	4.95e+06	48	71	CD71-binding FN3 domain of SEQ ID NO: 215 (designed binder) MSLPAPKNLVVSRVTEDSARLSWTAPDAAFDSLEIGYFENLYLGEAIVLTVPGSERSYDLTGLKPGTEYWVQIGGVKGGNWSAPLSAIFTT
1.01e+06	4.2e+06	36	148	CD71-binding FN3 domain of SEQ ID NO: 214 (designed binder) MSLPAPKNLVVSRVTEDSARLSWTAPDAAFDSFEIDYGEYSQAGEAIGLLVPGSERSYDLTGLKPGTEYWVQIGGVKGGNWSAPLSAIFTT
2.46e+06	4.74e+06	130	251	CD71-binding FN3 domain of SEQ ID NO: 213 (designed binder) MSLPAPKNLVVSRVTEDSARLSWTAPDAAFDSFEIGYFENLYLGEAIVLTVPGSERSYDLTGLKPGTEYWVQIGGAKGGNWSAPLSAIFTT
3.37e+06	5.04e+06	80	119	CD71-binding FN3 domain of SEQ ID NO: 216 (designed binder) MSLPAPKNLVVSRVTEDSARLSWTAPDAAFDSFEIAYFEQTYTGEAIVLTVPGSERSYDLTGLKPGTEYWVQIGGVKGGTWSAPLSAISTT
4.25e+06	3.62e+06	305	259	CD71-binding FN3 domain of SEQ ID NO: 165 (designed binder) MSLPAPKNLVVSRVTEDSARLSWTAPDAAFDSFYIAYAEPRPDGEAILLEVPGSERSYDLAGLKPGTEYSVLIHGVKGGLLSSPLGAEFTT
3.57e+06	5.27e+06	65	95	CD71-binding FN3 domain of SEQ ID NO: 142 (designed binder) MSLPAPKNLVVSRVTEDSARLSWTASDAAFDSFHIWYFEKANEGEAIPLVVPGSERSYDLTGLKPGTEYDVDIGGVKGGAWSIPLGARFTT
2.91e+06	4.41e+06	94	142	CD71-binding FN3 domain of SEQ ID NO: 143 (designed binder) MSLPAPKNLVVSRVTEDSARLSWTAPDAAFDSFAIQYVEVIGSGEAIELIVPGSERSYDLTGLKPGTEYHVYIDGVKGGKDSKPLYAGFTT
